Test results: patent CN101724074A (SUZHOU IND PARK CHENJIAN ANTIB, dated 2010)

Target: T1, 重组人ATP5B (rhATP5B) (human, UniProt P06576 48-529)
T1 construct: mature; Mr about 55 000; also called rhATP5B蛋白; rhATP5B抗原; not shown: His-tag and vector-derived residues of pET28a(+) (insert cloned SacI/HindIII)
Assay: ELISA on culture supernatant of CHO-DG44 transfectants

T1 sequence (P06576 48-529): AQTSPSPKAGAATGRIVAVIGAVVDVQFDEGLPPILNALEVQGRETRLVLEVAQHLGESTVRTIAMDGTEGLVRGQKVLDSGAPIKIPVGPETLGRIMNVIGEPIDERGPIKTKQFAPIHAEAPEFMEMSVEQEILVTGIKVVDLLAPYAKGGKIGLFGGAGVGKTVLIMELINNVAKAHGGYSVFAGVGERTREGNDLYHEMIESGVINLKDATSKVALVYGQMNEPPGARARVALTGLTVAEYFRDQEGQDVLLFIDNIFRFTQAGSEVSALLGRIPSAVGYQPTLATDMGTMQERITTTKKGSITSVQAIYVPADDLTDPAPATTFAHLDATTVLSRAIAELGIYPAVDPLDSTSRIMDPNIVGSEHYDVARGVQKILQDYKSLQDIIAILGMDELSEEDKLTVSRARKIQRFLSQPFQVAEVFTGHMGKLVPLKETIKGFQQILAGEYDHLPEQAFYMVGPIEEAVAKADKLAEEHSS

binding result: binds
B1: 抗ATP5B人鼠嵌合抗体c7A8 (antibody, human IgG1, kappa, V domains shown)
VH: EVQLLESGAELVKPGASVKLSCTASGFNIKDAYMYWVRQRPEQGLEWIGRIDPANDNTKYDPKFQGRATITADTSSNTAYLQLSSLTSEDTAVHYCARFYSVYAMDYWGQGTSVTVSS
VL: TQSPAIMSASPGEKVTITCSASSSVSYMHWFQQQPGTSPKLWVYTTSNLAFGVPARFSGSGPGTSYSLTISRMEAEDAATYYCQQRSSYPLTFGAGTKLELTR
notes: Chimeric IgG1/kappa: signal peptide and variable region of m7A8 joined to human IgG1 constant regions; tested as culture supernatant of transfected CHO-DG44 clone E1; also called 血管抑素受体β亚基人源化嵌合抗体; 人源化嵌合抗体
